Measurements from PMC10786891, “Massively parallel profiling of RNA-targeting CRISPR-Cas13d”.
Residue numbers refer to the chain shown, from its start. Names and notes keep the numbering of the source.

B1: target 1 insG 3' of 21,insA 3' of 3 (mixed)
RNA 1: CACCCGUGCAAAAAUGCAGGGGUCUAAAACUGAGCGGAUAACCUCUCUAUGG
RNA 2: GGGAAUGGAUCCACAUCUACGAAUUCGUACCGAUAGAGAGGUUAUCCGCUACACCGAGAUCGGAAGAGCACACGU
B2: target 3 insC 3' of 9,insU 3' of 3 (mixed)
RNA 1: CACCCGUGCAAAAUUGCAGGGGUCUAAAACGACCUGAAUAUUUCAGAUCAAA
RNA 2: GGGAAUGGAUCCACAUCUACGAAUUCGUUUUUGAUCUGAAAUACUUCAGGUUCUGCAGAUCGGAAGAGCACACGU
B3: target 3 C1A,G3C (mixed)
RNA 1: B2 RNA 1
RNA 2: GGGAAUGGAUCCACAUCUACGAAUUCGUUUUUGAUCUGAAAUAUUCAGCUAUGCAGAUCGGAAGAGCACACGU
B4: target 3 C1G,G3C (mixed)
RNA 1: B2 RNA 1
RNA 2: B3 RNA 2 with A51G
B5: target 3 insU 3' of 9,insA 3' of 6 (mixed)
RNA 1: B2 RNA 1
RNA 2: B2 RNA 2 with C44U, G49A, U51G
B6: target 3 C1U,U2C (mixed)
RNA 1: B2 RNA 1
RNA 2: B3 RNA 2 with C49G, U50C, A51U
B7: target 3 insC 3' of 22,insA 3' of 3 (mixed)
RNA 1: B2 RNA 1
RNA 2: GGGAAUGGAUCCACAUCUACGAAUUCGUUUCUUGAUCUGAAAUAUUCAGGAUCUGCAGAUCGGAAGAGCACACGU
B8: target 3 U2A,U7C (mixed)
RNA 1: B2 RNA 1
RNA 2: B3 RNA 2 with U45C, C49G, U50A, A51C
B9: target 3 C6U,A12C (mixed)
RNA 1: B2 RNA 1
RNA 2: B3 RNA 2 with A40C, C46U, C49G, A51C
B10: target 3 G3U,U7C (mixed)
RNA 1: B2 RNA 1
RNA 2: B3 RNA 2 with U45C, C49U, A51C
B11: target 3 insA 3' of 22,insU 3' of 11 (mixed)
RNA 1: B2 RNA 1
RNA 2: B7 RNA 2 with C31A, A44U, U45A, C47U, A48C, G49A, A51G
B12: target 1 G5C,G15U (mixed)
RNA 1: B1 RNA 1
RNA 2: GGGAAUGGAUCCACAUCUACGAAUUCGUACCAUAGAUAGGUUAUCCCCUCACCGAGAUCGGAAGAGCACACGU
B13: target 3 insA 3' of 7,insG 3' of 7 (mixed)
RNA 1: B2 RNA 1
RNA 2: B2 RNA 2 with C44U, U46A, C47G, A48C, G49A, U51G
B14: target 3 G3C,U7A (mixed)
RNA 1: B2 RNA 1
RNA 2: B3 RNA 2 with U45A, A51C
B15: target 3 U2A,U22G (mixed)
RNA 1: B2 RNA 1
RNA 2: B3 RNA 2 with U30G, C49G, U50A, A51C
B16: target 3 C1G,C6U (mixed)
RNA 1: B2 RNA 1
RNA 2: B3 RNA 2 with C46U, C49G, A51G
B17: target 3 G3A,A5G (mixed)
RNA 1: B2 RNA 1
RNA 2: B3 RNA 2 with A47G, C49A, A51C
B18: target 3 U2C,G14A (mixed)
RNA 1: B2 RNA 1
RNA 2: B3 RNA 2 with G38A, C49G, U50C, A51C
B19: target 3 A5C,U22A (mixed)
RNA 1: B2 RNA 1
RNA 2: B3 RNA 2 with U30A, A47C, C49G, A51C
B20: target 3 insU 3' of 4,insU 3' of 1 (mixed)
RNA 1: B2 RNA 1
RNA 2: B2 RNA 2 with C44U, U46C, C47A, A48G, G49U, U52C, C53U
B21: target 1 C6A,U11G (mixed)
RNA 1: B1 RNA 1
RNA 2: B12 RNA 2 with U37G, U41G, C46A, C47G
B22: target 3 insA 3' of 14,insG 3' of 5 (mixed)
RNA 1: B2 RNA 1
RNA 2: B2 RNA 2 with U42A, A43U, C44A, U51G
B23: target 3 insC 3' of 8,insG 3' of 6 (mixed)
RNA 1: B2 RNA 1
RNA 2: B2 RNA 2 with C44U, U45C, A48G, G49A, U51G
B24: target 3 insA 3' of 7 (mixed)
RNA 1: B2 RNA 1
RNA 2: GGGAAUGGAUCCACAUCUACGAAUUCGUUUUUGAUCUGAAAUAUUACAGGUCUGCAGAUCGGAAGAGCACACGU
B25: target 3 insU 3' of 16,insU 3' of 4 (mixed)
RNA 1: B2 RNA 1
RNA 2: B2 RNA 2 with G38U, A39G, U42A, A43U, C44A, G50U, U51G
B26: target 3 U8C (mixed)
RNA 1: B2 RNA 1
RNA 2: B3 RNA 2 with U44C, C49G, A51C
B27: target 3 insG 3' of 7,insA 3' of 7 (mixed)
RNA 1: B2 RNA 1
RNA 2: B2 RNA 2 with C44U, U46G, C47A, A48C, G49A, U51G
B28: target 3 complement block 4-9 (mixed)
RNA 1: B2 RNA 1
RNA 2: B3 RNA 2 with A43U, U44A, U45A, C46G, A47U, G48C, C49G, A51C
B29: target 3 insU 3' of 4,insG 3' of 1 (mixed)
RNA 1: B2 RNA 1
RNA 2: B2 RNA 2 with C44U, U46C, C47A, A48G, G49U, U52C, C53G
B30: target 3 insC 3' of 22,insU 3' of 3 (mixed)
RNA 1: B2 RNA 1
RNA 2: B7 RNA 2 with A51U
B31: target 3 insG 3' of 8,insA 3' of 7 (mixed)
RNA 1: B2 RNA 1
RNA 2: B2 RNA 2 with C44U, U45G, C47A, A48C, G49A, U51G
B32: target 1 C6G,C22A (mixed)
RNA 1: B1 RNA 1
RNA 2: B12 RNA 2 with C30A, U37G, C46G, C47G

Biological target: T1, EsCas13d, nuclease-dead (Eubacterium siraeum, UniProt B0MS50, R295A;H300A;R849A;H854A)
T1 sequence: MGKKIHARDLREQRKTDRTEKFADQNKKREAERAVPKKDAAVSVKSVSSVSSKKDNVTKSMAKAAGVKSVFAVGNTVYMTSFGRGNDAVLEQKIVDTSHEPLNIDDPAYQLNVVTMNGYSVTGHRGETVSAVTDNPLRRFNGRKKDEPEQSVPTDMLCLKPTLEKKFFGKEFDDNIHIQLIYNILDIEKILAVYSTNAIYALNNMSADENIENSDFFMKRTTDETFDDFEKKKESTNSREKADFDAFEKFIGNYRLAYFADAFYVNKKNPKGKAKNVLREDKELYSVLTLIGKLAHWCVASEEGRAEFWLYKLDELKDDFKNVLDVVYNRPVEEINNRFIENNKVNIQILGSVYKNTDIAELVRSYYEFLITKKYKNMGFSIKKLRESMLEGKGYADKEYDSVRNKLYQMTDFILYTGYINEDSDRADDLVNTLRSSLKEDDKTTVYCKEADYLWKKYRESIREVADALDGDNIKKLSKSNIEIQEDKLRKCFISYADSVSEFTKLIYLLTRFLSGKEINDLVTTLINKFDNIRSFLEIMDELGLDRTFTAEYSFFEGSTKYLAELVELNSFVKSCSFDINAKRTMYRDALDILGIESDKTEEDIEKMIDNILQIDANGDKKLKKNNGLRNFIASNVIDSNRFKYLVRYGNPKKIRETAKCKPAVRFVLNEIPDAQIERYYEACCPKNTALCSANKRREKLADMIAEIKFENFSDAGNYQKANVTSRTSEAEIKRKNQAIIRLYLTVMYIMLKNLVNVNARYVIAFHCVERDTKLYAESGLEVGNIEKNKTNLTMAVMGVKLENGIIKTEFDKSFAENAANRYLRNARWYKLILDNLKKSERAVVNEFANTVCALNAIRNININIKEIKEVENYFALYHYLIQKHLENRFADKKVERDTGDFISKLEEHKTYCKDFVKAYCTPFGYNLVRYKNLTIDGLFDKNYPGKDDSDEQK
Assay: crRNA (strand 1, pre-loaded); Mg2+; 40 mM Tris-HCl pH 7.5, 150 mM NaCl, 6 mM MgCl2, 1 mM DTT, 0.1% Tween-20, 0.2 mg/ml BSA; 25 C; 10 min per concentration, then washed
Conditions: tags: His6-TwinStrep-SUMO cleaved; N-terminal SNAP kept (SNAP-Surface 488); label: 3' end held by stalled T7 RNA polymerase

**Q.** Which Kd does the source give for B1 here?
**A.** The Kd was 54 ± 12 nM.

**Q.** For B2, which Kd is on record?
**A.** Its Kd is 114 ± 29 nM.

**Q.** For B3, which Kd is on record?
**A.** Its Kd is 65.5 ± 29.5 nM.

**Q.** B4 was tested. Which Kd did it give?
**A.** Its Kd is 26.5 ± 5 nM.

**Q.** For B5, which Kd is on record?
**A.** The Kd was 85 ± 40 nM.

**Q.** With B6 as the binder, how does the Kd read?
**A.** Its Kd is 54 ± 18.5 nM.

**Q.** Which Kd does the source give for B7 here?
**A.** The Kd was 65.5 ± 14 nM.

**Q.** B8 was tested. Which Kd did it give?
**A.** Its Kd is 38 ± 13 nM.

**Q.** B9 was tested. Which Kd did it give?
**A.** The Kd was 72 ± 12.5 nM.

**Q.** With B10 as the binder, how does the Kd read?
**A.** Its Kd is 86 ± 36 nM.

**Q.** Which Kd does the source give for B11 here?
**A.** The Kd was 72.5 ± 15.5 nM.

**Q.** How did the Kd turn out when B12 was run?
**A.** Its Kd is 28.6 ± 2.4 nM.

**Q.** Which Kd does the source give for B13 here?
**A.** Its Kd is 30.4 ± 3.7 nM.

**Q.** Which Kd does the source give for B14 here?
**A.** The Kd was 32.9 ± 3.6 nM.

**Q.** How did the Kd turn out when B15 was run?
**A.** Its Kd is 65.5 ± 11.5 nM.

**Q.** With B16 as the binder, how does the Kd read?
**A.** The Kd was 22.1 ± 2.55 nM.

**Q.** For B17, which Kd is on record?
**A.** Its Kd is 42.5 ± 6 nM.

**Q.** Which Kd does the source give for B18 here?
**A.** Its Kd is ~64.5 nM.

**Q.** For B19, which Kd is on record?
**A.** The Kd was 60.5 ± 10.5 nM.

**Q.** For B20, which Kd is on record?
**A.** Its Kd is 37 ± 7 nM.

**Q.** With B21 as the binder, how does the Kd read?
**A.** Its Kd is 10.8 ± 0.4 nM.

**Q.** How did the Kd turn out when B22 was run?
**A.** The Kd was 105 ± 31 nM.

**Q.** How did the Kd turn out when B23 was run?
**A.** The Kd was 79.5 ± 20.5 nM.

**Q.** Which Kd does the source give for B24 here?
**A.** The Kd was 44 ± 8.5 nM.

**Q.** How did the Kd turn out when B25 was run?
**A.** Its Kd is 37 ± 7 nM.

**Q.** With B26 as the binder, how does the Kd read?
**A.** The Kd was 30.4 ± 2.25 nM.

**Q.** B27 was tested. Which Kd did it give?
**A.** Its Kd is 39.5 ± 5 nM.

**Q.** How did the Kd turn out when B28 was run?
**A.** The Kd was 67.5 ± 18 nM.

**Q.** Which Kd does the source give for B29 here?
**A.** Its Kd is 43 ± 11.5 nM.

**Q.** With B30 as the binder, how does the Kd read?
**A.** Its Kd is 58 ± 10 nM.

**Q.** Which Kd does the source give for B31 here?
**A.** Its Kd is 42 ± 6 nM.

**Q.** B32 was tested. Which Kd did it give?
**A.** The Kd was 14.7 ± 1 nM.
